Laboratory results as given in paper PMC11708914.

Key:
[1] = target: WNV HA-NS5 (HA-tagged West Nile virus NS5) (West Nile virus) (UniProt P06935); assay: co-IP; anti-HA agarose beads; lysates of transfected 293 T cells (lysis buffer with protease inhibitors and benzonase), overnight at 4 °C; UBA1 detected by Western blot
[2] = target: USUV HA-NS5 (HA-tagged Usutu virus NS5) (Usutu virus) (UniProt Q5WPU5); assay: as above
[3] = target: ZIKV HA-NS5 (full-length Zika virus NS5 fused to an HA-tag in its N-terminus) (Zika virus); assay: as above
[4] = target: Recombinant His-tagged ZIKV NS5 (Zika virus); assay: pull-down; Ni-NTA agarose resin; 3 mg of whole-cell protein from 293 T cells incubated with 90 µg of recombinant His-tagged bait (BSA as control); UBA1 detected by Western blot

Chain of UniProt P06935 (P06935 2526-3430): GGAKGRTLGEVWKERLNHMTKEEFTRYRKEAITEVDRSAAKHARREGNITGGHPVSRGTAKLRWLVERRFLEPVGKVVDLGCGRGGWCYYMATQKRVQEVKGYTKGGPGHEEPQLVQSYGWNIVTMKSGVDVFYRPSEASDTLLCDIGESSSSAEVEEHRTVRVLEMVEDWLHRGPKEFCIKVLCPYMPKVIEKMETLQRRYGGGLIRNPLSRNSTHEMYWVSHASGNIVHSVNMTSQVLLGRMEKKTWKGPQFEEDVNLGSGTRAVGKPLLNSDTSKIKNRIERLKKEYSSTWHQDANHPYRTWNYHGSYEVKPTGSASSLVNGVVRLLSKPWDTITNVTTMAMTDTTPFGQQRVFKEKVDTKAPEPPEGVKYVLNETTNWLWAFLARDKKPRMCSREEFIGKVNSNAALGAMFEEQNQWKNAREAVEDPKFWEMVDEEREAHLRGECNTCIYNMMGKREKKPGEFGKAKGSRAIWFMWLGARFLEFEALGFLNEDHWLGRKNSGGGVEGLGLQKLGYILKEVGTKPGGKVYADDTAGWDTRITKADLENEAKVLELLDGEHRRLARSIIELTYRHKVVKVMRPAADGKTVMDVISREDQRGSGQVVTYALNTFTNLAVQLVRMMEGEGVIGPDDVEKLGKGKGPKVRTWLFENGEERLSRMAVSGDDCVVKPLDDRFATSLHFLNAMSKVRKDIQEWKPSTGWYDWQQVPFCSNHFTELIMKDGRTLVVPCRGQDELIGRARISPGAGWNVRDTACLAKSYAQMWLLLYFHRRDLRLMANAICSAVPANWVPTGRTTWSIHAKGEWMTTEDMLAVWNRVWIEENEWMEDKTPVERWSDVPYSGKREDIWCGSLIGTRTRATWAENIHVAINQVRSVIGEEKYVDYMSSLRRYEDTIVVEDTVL
Chain of UniProt Q5WPU5 (Q5WPU5 2530-3434): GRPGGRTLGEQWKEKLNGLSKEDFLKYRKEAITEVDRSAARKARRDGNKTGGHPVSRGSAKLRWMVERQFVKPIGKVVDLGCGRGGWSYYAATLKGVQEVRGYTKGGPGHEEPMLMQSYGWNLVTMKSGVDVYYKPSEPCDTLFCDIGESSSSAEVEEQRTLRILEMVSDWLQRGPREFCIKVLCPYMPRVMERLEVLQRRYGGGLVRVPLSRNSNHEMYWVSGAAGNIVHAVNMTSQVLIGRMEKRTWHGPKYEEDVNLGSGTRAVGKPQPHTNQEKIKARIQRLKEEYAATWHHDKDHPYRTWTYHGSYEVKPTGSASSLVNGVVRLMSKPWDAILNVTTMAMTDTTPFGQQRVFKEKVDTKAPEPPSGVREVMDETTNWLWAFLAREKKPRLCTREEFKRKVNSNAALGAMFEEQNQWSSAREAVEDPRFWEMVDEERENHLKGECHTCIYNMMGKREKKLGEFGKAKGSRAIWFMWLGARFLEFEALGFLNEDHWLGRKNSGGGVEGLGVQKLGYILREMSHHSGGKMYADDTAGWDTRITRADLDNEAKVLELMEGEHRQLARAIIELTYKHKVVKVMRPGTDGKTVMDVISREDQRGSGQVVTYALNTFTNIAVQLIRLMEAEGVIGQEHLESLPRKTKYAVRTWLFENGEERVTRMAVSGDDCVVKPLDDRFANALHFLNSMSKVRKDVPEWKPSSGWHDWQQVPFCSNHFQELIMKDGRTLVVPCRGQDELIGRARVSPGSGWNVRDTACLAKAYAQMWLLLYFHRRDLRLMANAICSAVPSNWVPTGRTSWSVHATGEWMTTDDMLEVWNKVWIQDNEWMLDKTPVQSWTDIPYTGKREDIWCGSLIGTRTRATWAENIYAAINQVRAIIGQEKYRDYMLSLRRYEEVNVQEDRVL

Ubiquitin-like modifier-activating enzyme 1 (UBA1), endogenous
fold enrichment over controls [1]: > 100 fold | fold enrichment over controls [2]: > 100 fold | fold enrichment over controls (empty vector or EYFP) [3]: > 100 fold | amount of UBA1 relative to controls [4]: > 4 times
